B1: anti-SIGLEC15 antibody 10A7 (antibody, human IgG1, V domains shown)
VH: EVQLVQSGGGLVQPGGSLRLSCAASGFTFSNYEMNWVRQAPGKGLEWISYISNSGSTIYYADSVKGRFTISRDDAKNSLYLQMNSLRAEDTAVYYCAREDYDSSGYYWFDPWGQGTPVTVSS
VL: DIQLTQSPSSVSASVGDRVTITCRASQGISSWLAWYQQKPGKAPKLLIYAASSLQSGVPSRFSGSGSGTDFTLTINSLQPEDFATYYCQQTNSFPLTFGGGTKVEIK
B2: anti-SIGLEC15 antibody 10C9 (antibody, human IgG1, V domains shown)
VH: QVQLVQSGAEVKKPGATVKVSCKASGYTFTNYGFSWVRQAPGQGLEWMGWINTYNDNTNYAQKFQGRVTMTTDTSTSTAYMELRSLRSDDTAVYYCARDGLWFGELPHYFDYWGQGTLVTVSS
VL: DIQLTQSPLSSPVTLGQPASISCRSSQSLVNSDGETFLSWLQQRPGQPPRLLIYKISNRFSGVPDRFSGSGAGTDFTLKISRVEAEDVGVYYCMQATQFPHTFGQGTKLEIK
B3: anti-SIGLEC15 antibody 23F4 (antibody, human IgG1, V domains shown)
VH: QVQLQQWGAGLLKPSETLSLTCAVYGGSFSGYFWSWIRQPPGKGLEWIGEINHSGSTNYNPSLKSRVTLSVDTSKNQFSLKLSSVTAADTAVYYCAREGDSSSWGNWFDPWGQGTLVTVSS
VL: EIVLTQSPGTLSLSPGERATLSCRASQSVSSSYLAWYQQKPGQAPRFLIYGASSRATGIPDRFSGSGSGTDFTLTISRLEPEDFAVYYCQQFGNSPLTFGGGTKVEIK

Biological target: T1, human SIGLEC4 on CHO-S-hSIGLEC4 cells (human, UniProt P20916 20-516)
T1 sequence: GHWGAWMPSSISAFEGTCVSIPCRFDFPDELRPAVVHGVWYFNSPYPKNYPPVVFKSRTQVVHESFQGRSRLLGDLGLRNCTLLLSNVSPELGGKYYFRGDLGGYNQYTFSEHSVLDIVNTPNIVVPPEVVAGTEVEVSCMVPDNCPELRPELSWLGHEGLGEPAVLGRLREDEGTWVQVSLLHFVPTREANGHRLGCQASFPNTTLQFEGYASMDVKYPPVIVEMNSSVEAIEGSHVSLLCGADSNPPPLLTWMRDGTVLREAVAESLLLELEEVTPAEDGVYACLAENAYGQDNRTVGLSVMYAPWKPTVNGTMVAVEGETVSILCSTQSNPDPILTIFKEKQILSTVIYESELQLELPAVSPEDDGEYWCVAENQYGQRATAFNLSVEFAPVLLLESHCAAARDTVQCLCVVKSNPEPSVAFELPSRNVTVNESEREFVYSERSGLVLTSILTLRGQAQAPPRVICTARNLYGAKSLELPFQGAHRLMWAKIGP
Assay: flow cytometry, CHO-S cells expressing the target; for Percentage of Positive Cells: test concentration or dose not given here
Procedure: (§1) CHO-S-hSIGLEC15 cells, CHO-S-mSIGLEC15 cells, CHO-S-fasSIGLEC15 cells or CHO-S-dSIGLEC15 cells were transferred to a 96-well plate at a density of 5×10⁴ cells/well respectively. Serially diluted sample anti-SIGLEC15 antibodies were added to the 96-well plate, and incubated at 4° C. for 30 min. Then, the cells were incubated with the secondary antibody anti-hIgG-Fc-Alex Flour 647 (RL1-H) (Jackson ImmunoResearch Laboratories, Inc., 109-606-170) at 4° C. in the dark for 15 minutes before flow cytometry analysis.
(§2) Another similar experiment was performed to determine whether the anti-SIGLEC15 antibodies can bind with other SIGLEC family proteins. CHO-S-hSIGLEC1 cells (expressing hSIGLEC1, SEQ ID NO: 49)), CHO-S-hSIGLEC2 cells (expressing hSIGLEC2, SEQ ID NO: 50), CHO-S-hSIGLEC4 cells (expressing hSIGLEC4, SEQ ID NO: 51), CHO-S-hSIGLEC5 cells (expressing hSIGLEC5, SEQ ID NO: 52), CHO-S-hSIGLEC6 cells (expressing hSIGLEC6, SEQ ID NO: 53), CHO-S-hSIGLEC7 cells (expressing hSIGLEC7, SEQ ID NO: 54), CHO-S-hSIGLEC8 cells (expressing hSIGLEC8, SEQ ID NO: 55), CHO-S-hSIGLEC9 cells (expressing hSIGLEC9, SEQ ID NO: 56), CHO-S-hSIGLEC10 cells (expressing hSIGLEC10, SEQ ID NO: 57), CHO-S-hSIGLEC11 cells (expressing hSIGLEC11, SEQ ID NO: 58), CHO-S-hSIGLEC12 cells (expressing hSIGLEC12, SEQ ID NO: 59), CHO-S-hSIGLEC14 cells (expressing hSIGLEC14, SEQ ID NO: 60) or CHO-S-hSIGLEC16 cells (expressing hSIGLEC16, SEQ ID NO: 61) were used.

Binder | Percentage of Positive Cells [%] | binding result
B1 | 1.1 | no binding
B2 | 1.2 | no binding
B3 | 0.8 | no binding

Biological target: human SIGLEC9 on CHO-S-hSIGLEC9 cells (human, UniProt Q9Y336 18-348)
Assay: flow cytometry, CHO-S cells expressing the target; for Percentage of Positive Cells: test concentration or dose not given here
Procedure: as §1, §2

Sequence of human SIGLEC9 on CHO-S-hSIGLEC9 cells (Q9Y336 18-348): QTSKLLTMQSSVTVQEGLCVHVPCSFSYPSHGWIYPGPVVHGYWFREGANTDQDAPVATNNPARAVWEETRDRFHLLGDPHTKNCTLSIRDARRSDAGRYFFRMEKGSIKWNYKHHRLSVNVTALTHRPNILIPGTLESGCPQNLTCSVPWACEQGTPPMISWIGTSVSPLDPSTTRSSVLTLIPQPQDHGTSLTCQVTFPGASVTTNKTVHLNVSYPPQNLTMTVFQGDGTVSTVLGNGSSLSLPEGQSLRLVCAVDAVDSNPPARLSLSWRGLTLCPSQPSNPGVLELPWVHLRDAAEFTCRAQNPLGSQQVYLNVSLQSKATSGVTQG

Binder | Percentage of Positive Cells [%] | binding result
B1 | 0.3 | no binding
B2 | 0.1 | no binding
B3 | 0.7 | no binding

Biological target: T2, human SIGLEC11 on CHO-S-hSIGLEC11 cells (human, UniProt Q96RL6 104-561)
T2 sequence: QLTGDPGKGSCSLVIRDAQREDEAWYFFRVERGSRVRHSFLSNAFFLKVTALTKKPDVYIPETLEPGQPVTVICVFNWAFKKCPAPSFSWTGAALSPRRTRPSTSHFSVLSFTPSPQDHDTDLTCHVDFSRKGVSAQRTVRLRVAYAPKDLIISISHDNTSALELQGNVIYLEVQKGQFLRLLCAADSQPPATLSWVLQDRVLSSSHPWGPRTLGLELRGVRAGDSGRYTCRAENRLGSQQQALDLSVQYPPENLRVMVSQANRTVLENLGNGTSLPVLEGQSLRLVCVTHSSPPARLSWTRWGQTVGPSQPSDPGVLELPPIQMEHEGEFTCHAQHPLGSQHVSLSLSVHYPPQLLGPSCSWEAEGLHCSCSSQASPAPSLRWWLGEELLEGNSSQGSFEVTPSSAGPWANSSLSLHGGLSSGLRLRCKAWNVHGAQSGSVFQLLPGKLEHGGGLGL
Assay: flow cytometry, CHO-S cells expressing the target; for Percentage of Positive Cells: test concentration or dose not given here
Procedure: as §1, §2

Binder | Percentage of Positive Cells [%] | binding result
B1 | 0.1 | no binding
B2 | 0.1 | no binding
B3 | 0.2 | no binding

Biological target: T3, human SIGLEC16 on CHO-S-hSIGLEC16 cells (human, UniProt A6NMB1 17-434)
T3 chain: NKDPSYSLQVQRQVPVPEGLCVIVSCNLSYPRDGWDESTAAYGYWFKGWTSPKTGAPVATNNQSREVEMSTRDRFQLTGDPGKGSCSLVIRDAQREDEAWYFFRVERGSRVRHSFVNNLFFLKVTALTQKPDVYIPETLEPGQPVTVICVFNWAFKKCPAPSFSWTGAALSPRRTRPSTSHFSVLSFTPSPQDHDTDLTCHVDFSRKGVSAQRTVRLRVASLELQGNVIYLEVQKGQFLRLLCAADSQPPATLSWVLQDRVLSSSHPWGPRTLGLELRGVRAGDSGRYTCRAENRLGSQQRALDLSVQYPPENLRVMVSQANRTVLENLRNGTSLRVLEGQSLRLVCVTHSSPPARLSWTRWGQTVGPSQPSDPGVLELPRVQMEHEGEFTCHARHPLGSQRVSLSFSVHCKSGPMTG
Assay: flow cytometry, CHO-S cells expressing the target; for Percentage of Positive Cells: test concentration or dose not given here
Procedure: as §1, §2

Binder | Percentage of Positive Cells [%] | binding result
B1 | 0.2 | no binding
B2 | 0.2 | no binding
B3 | 1.3 | no binding
